The values that follow come from the supplement of paper PMC5998384.

The test system of data set [1] is HeLa Kyoto. The experiment in a line: melting temperature (median over replicates), in situ; higher = more thermally stable.
The test system of data set [2] is HeLa Kyoto. Put plainly: solubility in G1/S (NP-40 vs SDS abundance) (log2 ratio); higher = more soluble. Particulars: cell cycle stage: G1/S.
The subject of data set [3] is HeLa Kyoto. Put plainly: solubility change mitosis vs G1/S (difference of NP-40 vs SDS log2 ratios) (log2 ratio difference); higher = more soluble in mitosis.
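For melting temperature (median over replicates), in situ in this document: HeLa Kyoto cells synchronized by double thymidine or nocodazole block, proteins quantified by TMT10plex mass spectrometry, three independent biological replicates.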
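For solubility change mitosis vs G1/S (difference of NP-40 vs SDS log2 ratios) in this document: synchronized HeLa Kyoto cells (double thymidine block for G1/S, nocodazole release for mitosis), protein amounts in NP-40 versus SDS lysates quantified by mass spectrometry, three biological replicates.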
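For solubility in G1/S (NP-40 vs SDS abundance) in this document: HeLa Kyoto cells arrested at G1/S by double thymidine block, proteins quantified by TMT10plex mass spectrometry in mild NP-40 versus SDS extracts, three biological replicates.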

Turning to “MPVTHRKSDASDMNSDTSPSCRLRAFSRGGSLESRSSSSRSRSFTLDDESLKYLTHEEKDVLLFFEETIDSLDEDFEEPVLCDGGVCCLCSPSLEESTSSPSEPEDVIDLVQPAPGAGEAEGLPEGTQAAGPAPAGKEHRKQDAETPPPPDPPAPETLLAPPPLPSTPDPPRRELRAPSPPVEHPRLLRSVPTPLVMAQKISERMAGNEALSPTSPFREGRPGEWRTPAARGPRSGDPGPGPSHPAQPKAPRFPSNIIVTNGAAREPRRTLSRAAVSVQERRAQVLATIHGHAGAFPAAGDAGEGAPGGGSSPERVARGRGLPGPAESLRAGGQAPRGPALANGFPSAHEALKSAPSSFAPAGKSLCFRPGPALPSTRARQSFPGPRQPNGAQDWRRADSLPRPQGITVQFAGRGSSEEARREALRKLGLLRESS [PROSER2]”, the melting temperature was found to be 48.6 °C in the data set with HeLa Kyoto [1] (cell cycle stage: G1/S) and 51.3 °C in the data set on HeLa Kyoto [1] (cell cycle stage: mitosis). Further, in the data set with HeLa Kyoto [2], the “solubility in G1/S (log2)” value turned out to be 0.405. Moreover, in the data set on HeLa Kyoto [3], the “solubility change mitosis (log2)” value is -0.0862.
As for “MQNEPLTPGYHGFPARDSQGNQEPTTTPDAMVQPFTTIPFPPPPQNGIPTEYGVPHTQDYAGQTGEHNLTLYGSTQAHGEQSSNSPSTQNGSLTTEGGAQTDGQQSQTQSSENSESKSTPKRLHVSNIPFRFRDPDLRQMFGQFGKILDVEIIFNERGSKGFGFVTFENSADADRAREKLHGTVVEGRKIEVNNATARVMTNKKMVTPYANGWKLSPVVGAVYGPELYAASSFQADVSLGNDAAVPLSGRGGINTYIPLISLPLVPGFPYPTAATTAAAFRGAHLRGRGRTVYGAVRAVPPTAIPAYPGVVYQDGFYGADLYGGYAAYRYAQPATATAATAAAAAAAAYSDGYGRVYTADPYHALAPAASYGVGAVASLYRGGYSRFAPY [RBFOX2]”, in the data set on HeLa Kyoto [1] (cell cycle stage: G1/S), the melting temperature was found to be 49.8 °C. Further, in the data set with HeLa Kyoto [2], the “solubility in G1/S (log2)” value is 0.223. The “solubility change mitosis (log2)” value in the data set with HeLa Kyoto [3] came out at 0.0624.
As for “MRDYDEVTAFLGEWGPFQRLIFFLLSASIIPNGFTGLSSVFLIATPEHRCRVPDAANLSSAWRNHTVPLRLRDGREVPHSCRRYRLATIANFSALGLEPGRDVDLGQLEQESCLDGWEFSQDVYLSTIVTEWNLVCEDDWKAPLTISLFFVGVLLGSFISGQLSDRFGRKNVLFVTMGMQTGFSFLQIFSKNFEMFVVLFVLVGMGQISNYVAAFVLGTEILGKSVRIIFSTLGVCIFYAFGYMVLPLFAYFIRDWRMLLVALTMPGVLCVALWWFIPESPRWLISQGRFEEAEVIIRKAAKANGIVVPSTIFDPSELQDLSSKKQQSHNILDLLRTWNIRMVTIMSIMLWMTISVGYFGLSLDTPNLHGDIFVNCFLSAMVEVPAYVLAWLLLQYLPRRYSMATALFLGGSVLLFMQLVPPDLYYLATVLVMVGKFGVTAAFSMVYVYTAELYPTVVRNMGVGVSSTASRLGSILSPYFVYLGAYDRFLPYILMGSLTILTAILTLFLPESFGTPLPDTIDQMLRVKGMKHRKTPSHTRMLKDGQERPTILKSTAF [SLC22A5]”, the melting temperature in the data set with HeLa Kyoto [1] (cell cycle stage: G1/S) worked out at 59.7 °C; with HeLa Kyoto [1] (cell cycle stage: mitosis) it was 56.9 °C. In addition, in the data set on HeLa Kyoto [2], the “solubility in G1/S (log2)” value amounted to 0.228. In the data set with HeLa Kyoto [3], the “solubility change mitosis (log2)” value was -0.137.
The like results for “MRESALERGPVPEAPAGGPVHAVTVVTLLEKLASMLETLRERQGGLARRQGGLAGSVRRIQSGLGALSRSHDTTSNTLAQLLAKAERVSSHANAAQERAVRRAAQVQRLEANHGLLVARGKLHVLLFKEEGEVPASAFQKAPEPLGPADQSELGPEQLEAEVGESSDEEPVESRAQRLRRTGLQKVQSLRRALSGRKGPAAPPPTPVKPPRLGPGRSAEAQPEAQPALEPTLEPEPPQDTEEDPGRPGAAEEALLQMESVA [PRKCDBP]” were, in that order, 53.9 °C, 52.8 °C, 0.305 and 0.338.
Turning to “MRKIDLCLSSEGSEVILATSSDEKHPPENIIDGNPETFWTTTGMFPQEFIICFHKHVRIERLVIQSYFVQTLKIEKSTSKEPVDFEQWIEKDLVHTEGQLQNEEIVAHDGSATYLRFIIVSAFDHFASVHSVSAEGTVVSNLSS [HSPB11]”, the melting temperature with HeLa Kyoto [1] (cell cycle stage: G1/S) came out at 53.3 °C; in the data set with HeLa Kyoto [1] (cell cycle stage: mitosis), 55.1 °C. The “solubility in G1/S (log2)” value in the data set on HeLa Kyoto [2] worked out at 0.137. Besides, the “solubility change mitosis (log2)” value in the data set on HeLa Kyoto [3] is -0.328.
The corresponding values for “MRLRVRLLKRTWPLEVPETEPTLGHLRSHLRQSLLCTWGYSSNTRFTITLNYKDPLTGDEETLASYGIVSGDLICLILQDDIPAPNIPSSTDSEHSSLQNNEQPSLATSSNQTSMQDEQPSDSFQGQAAQSGVWNDDSMLGPSQNFEAESIQDNAHMAEGTGFYPSEPMLCSESVEGQVPHSLETLYQSADCSDANDALIVLIHLLMLESGYIPQGTEAKALSMPEKWKLSGVYKLQYMHPLCEGSSATLTCVPLGNLIVVNATLKINNEIRSVKRLQLLPESFICKEKLGENVANIYKDLQKLSRLFKDQLVYPLLAFTRQALNLPDVFGLVVLPLELKLRIFRLLDVRSVLSLSAVCRDLFTASNDPLLWRFLYLRDFRDNTVRVQDTDWKELYRKRHIQRKESPKGRFVMLLPSSTHTIPFYPNPLHPRPFPSSRLPPGIIGGEYDQRPTLPYVGDPISSLIPGPGETPSQFPPLRPRFDPVGPLPGPNPILPGRGGPNDRFPFRPSRGRPTDGRLSFM [FBXO7]” are 48.1 °C, 49.7 °C, 0.02 and -0.126.
